Assay results reported in patent publication US20150140169.

Biological target: T1, alpha-s1 casein from Bos taurus
T1 chain: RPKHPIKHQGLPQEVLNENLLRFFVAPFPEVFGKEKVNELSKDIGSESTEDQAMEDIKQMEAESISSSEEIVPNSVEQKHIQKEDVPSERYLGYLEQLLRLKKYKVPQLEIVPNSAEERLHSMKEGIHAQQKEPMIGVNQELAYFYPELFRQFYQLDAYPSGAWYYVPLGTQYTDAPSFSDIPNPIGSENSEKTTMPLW

Row | Protein | (αSN1-1)/(αSN1), 6 hours, 11° C. | (αSN1-1)/(αSN1), 24 hours, 11° C. | αs1-I CN, 6 hours, 11° C. [Volume] | αs1-I CN, 24 hours, 11° C. [Volume] | αs1 CN, 6 hours, 11° C. [Volume] | αs1 CN, 24 hours, 11° C. [Volume] | hydrolysis of the first cut in alpha-s1-casein | small, 16 hours, 30° C. [Volume] | αs1-I CN, 16 hours, 30° C. [Volume] | αs1 CN, 16 hours, 30° C. [Volume] | hydrolysis of the first cut in alpha s1-casein | small, 6 hours, 11° C. [Volume] | small, 24 hours, 11° C. [Volume]
1 | camel chymosin variant #136 (F223C) (protein) GKVAREPLTSYLDSQYFGKIYIGTPPQEFTVVFDTGSSDLWVPSIYCKSNVCKNHHRFDPRKSSTFRNLGKPLSIHYGTGSMEGFLGYDTVTVSNIVDPNQTVGLSTEQPGEVFTYSEFDGILGLAYPSLASEYSVPVFDNMMDRHLVARDLFSVYMDRNGQGSMLTLGAIDPSYYTGSLHWVPVTLQQYWQFTVDSVTINGVAVACVGGCQAILDTGTSVLCGPSSDILKIQMAIGATENRYGEFDVNCGNLRSMPTVVFEINGRDYPLSPSAYTSKDQGFCTSGFQGDNNSELWILGDVFIREYYSVFDRANNRVGLAKAI | 0.7 | 1.9 | 2.06e+07 | 2.03e+07 | 2.86e+07 | 1.06e+07 | – | – | – | – | – | – | –
2 | camel chymosin variant #137 (F223D) (protein) GKVAREPLTSYLDSQYFGKIYIGTPPQEFTVVFDTGSSDLWVPSIYCKSNVCKNHHRFDPRKSSTFRNLGKPLSIHYGTGSMEGFLGYDTVTVSNIVDPNQTVGLSTEQPGEVFTYSEFDGILGLAYPSLASEYSVPVFDNMMDRHLVARDLFSVYMDRNGQGSMLTLGAIDPSYYTGSLHWVPVTLQQYWQFTVDSVTINGVAVACVGGCQAILDTGTSVLDGPSSDILKIQMAIGATENRYGEFDVNCGNLRSMPTVVFEINGRDYPLSPSAYTSKDQGFCTSGFQGDNNSELWILGDVFIREYYSVFDRANNRVGLAKAI | 0.7 | 2.3 | 2.26e+07 | 2.55e+07 | 3.14e+07 | 1.1e+07 | – | – | – | – | – | – | –
3 | bovine chymosin B variant #110 (A51V, K221V, N50D, N144H, N160D, S201D, Q242E, M267E, Q280E) (protein) GEVASVPLTNYLDSQYFGKIYLGTPPQEFTVLFDTGSSDFWVPSIYCKSDVCKNHQRFDPRKSSTFQNLGKPLSIHYGTGSMQGILGYDTVTVSNIVDIQQTVGLSTQEPGDVFTYAEFDGILGMAYPSLASEYSIPVFDNMMHRHLVAQDLFSVYMDRDGQESMLTLGAIDPSYYTGSLHWVPVTVQQYWQFTVDSVTIDGVVVACEGGCQAILDTGTSVLVGPSSDILNIQQAIGATQNEYGEFDIDCDNLSYMPTVVFEINGKEYPLTPSAYTSQDEGFCTSGFQSENHSQKWILGDVFIREYYSVFDRANNLVGLAKAI | – | – | – | – | – | – | show a clear hydrolysis of the first cut in alpha-s1-casein, leading to a rapid formation of fragment alpha-s1-I casein | 1.4e+06 | 2.26e+07 | 3e+06 | – | – | –
4 | bovine chymosin B variant #62 (V223Q) (protein) GEVASVPLTNYLDSQYFGKIYLGTPPQEFTVLFDTGSSDFWVPSIYCKSNACKNHQRFDPRKSSTFQNLGKPLSIHYGTGSMQGILGYDTVTVSNIVDIQQTVGLSTQEPGDVFTYAEFDGILGMAYPSLASEYSIPVFDNMMNRHLVAQDLFSVYMDRNGQESMLTLGAIDPSYYTGSLHWVPVTVQQYWQFTVDSVTISGVVVACEGGCQAILDTGTSKLQGPSSDILNIQQAIGATQNQYGEFDIDCDNLSYMPTVVFEINGKMYPLTPSAYTSQDQGFCTSGFQSENHSQKWILGDVFIREYYSVFDRANNLVGLAKAI | – | – | 1.29e+07 | 1.99e+07 | 2.67e+07 | 1.34e+07 | – | – | – | – | variant 62 shows slow hydrolysis of the first cut in alpha s1-casein, and therefore slow accumulation of alpha s1-I casein | 0 | 4.1e+06
